Assays:
IIB RNA = experiment: Fluorescence anisotropy analysis of cRev with Cy3-labeled IIB RNA; format: binding, HIV-1; conditions: Cy3-IIB RNA 250 nM, room temperature, pH 6.0; read-out: Kd (dissociation constant) for the interaction with IIB RNA
Method: IIB RRE labeled with […] Cy3 was dissolved in a binding buffer (25 mM sodium phosphate, 50 mM NaCl, pH 6.0). The peptide (sample) of various concentrations was sequentially added to 250 nM RNA. The final concentration of the peptide was 600 nM. After the mixing, the sample was incubated for 1 minute. There was 1-minute incubation time between all the steps. All the experiments were performed at room temperature. The dissociation constant (Kd) was calculated using the Origin software.
In order to analyze the function of cRev, the cRev of Preparation Example 2 was mixed with Cy3-labeled IIB RNA and then fluorescence anisotropy analysis was performed.

[1] = test system: wild-type IIB (RRE IIB WT); experiment: EMSA with 32P-labeled wild-type IIB and mutant IIB; format: binding, HIV-1
Method: A peptide (sample) and ^32P-labeled RNA were mixed with a binding buffer (10 mM HEPES (pH 7.5), 100 mM KCl, 1 mM MgCl2, 0.5 mM EDTA, 10% glycerol and […] yeast tRNA). After serially diluting the peptide with the binding buffer, RNA (10 pM) of the same volume was added. The resulting mixture was incubated at room temperature for 30 minutes and electrophoresis was conducted at 4° C. on 10% polyacrylamide gel. The […] was visualized with FLA-7000 Phosphor Imager (GE Healthcare Life Sciences, USA) and analyzed using the Multi Gauge software.
In order to analyze the binding affinity of cRev for IIB RNA, the /Rev of Preparation Example 1 or the cRev of Preparation Example 2 was mixed with ^32P-labeled wild-type IIB and ^32P-labeled mutant IIB, respectively, and analyzed by EMSA (electrophoretic mobility shift assay). The mutation of IIB is the mutation in the G46-C74 base pairs of wild-type IIB.

HeLa cells [2] = experiment: Confocal microscopy of intracellular delivery of ZsGreen cargo; format: cell-based; conditions: 50 μM, 30 minutes
Method: A DMEM medium containing 10% FBS was prepared on an 8-well Lab-Tek II chamber slide (Thermo Fisher Scientific, USA). Hela cells were dispensed in each well at a density of 10^4 cells/well and cultured for 24 hours. The cells were washed twice with PBS and then cultured for 30 minutes after replacing the medium with one containing 50 μM of the ZsGreen or the CPP22-ZsGreen fusion protein. The cells were washed with PBS, treated with DAPI, and then washed with PBS after reaction for 5 minutes (for observation of cell nuclei). Then, the stained cells were observed by confocal microscopy.

HeLa cells [3] = experiment: Flow cytometry of intracellular delivery of ZsGreen cargo; format: cell-based; conditions: Hela cells, 10, 20 or 50 μM, 4 hours
Method: Hela cells were inoculated onto a 24-well plate (10^5 cells/well) and cultured in a DMEM medium containing 10% FBS for 24 hours. After washing with PBS, the cells were treated with ZsGreen or the CPP22-ZsGreen fusion protein at 0, 10, 20 or 50 μM for 4 hours. Then, after washing the cells twice with PBS and incubating with trypsin (1 mg/mL) for 15 minutes, the peptides bound to the cell surface were removed. The cells were centrifuged at 1,200 rpm for 5 minutes, washed twice with PBS, and then suspended in a PBS buffer containing 10% non-enzymatic cell dissociation solution. The fluorescence intensity of the internalized peptide was measured using a BD LSR II flow cytometer (BD Biosciences, USA).

Molecule | Kd (IIB RNA) [nM] | binding affinity for wild-type IIB compared with /Rev ([1]; wild-type IIB (RRE IIB WT)) | recognition of IIB RNA (EMSA) ([1]; wild-type IIB versus mutant IIB) | intracellular delivery (confocal microscopy) (HeLa cells [2]) | intracellular delivery (flow cytometry) (HeLa cells [3])
CRGGDEDALKAARAIKFLYQSNPPPNPEGTRQARRNRRRRWRERQRQIHSASERIASTLGGMRM (protein, cyclized via intein; The peptide is circular., cyclic, oligomerization-defective Rev N-terminal domain protein made by intein-mediated cyclization) CRGGDEDALKAARAIKFLYQSNPPPNPEGTRQARRNRRRRWRERQRQIHSASERIASTLGGMRM | 34 | significantly higher binding affinity | specifically recognizes IIB RNA |  | 
ZsGreen: green fluorescent protein, expressed from bacterial cells, used as a comparative example (protein) MAQSKHGLTKEMTMKYRMEGCVDGHKFVITGEGIGYPFKGKQAINLCVVEGGPLPFAEDILSAAFMYGNRVFTEYPQDIADYFKNSCPAGYTWDRSFLFEDGAVCICNADITVSVEENCMYHESKFYGVNFPADGPVMKKMTDNWEPSCEKIIPVPKQGILKGDVSMYLLLKDGGRLRCQFDTVYKAKSVPRKMPDWHFIQHKLTREDRSDAKNQKWHLTEHAIASGSALP |  |  |  | not delivered into the cells | no intracellular delivery was observed
CPP22-ZsGreen: fusion protein wherein CPP22 is fused with the ZsGreen protein (protein) GSHMASAAAQARRNAAAQARRNAAAQARRNAAAQARRNAAAQARRNAAAGSGSGSGSGPVATMAQSKHGLTKEMTMKYRMEGCVDGHKFVITGEGIGYPFKGKQAINLCVVEGGPLPFAEDILSAAFMYGNRVFTEYPQDIADYFKNSCPAGYTWDRSFLFEDGAVCICNADITVSVEENCMYHESKFYGVNFPADGPVMKKMTDNWEPSCEKIIPVPKQGILKGDVSMYLLLKDGGRLRCQFDTVYKAKSVPRKMPDWHFIQHKLTREDRSDAKNQKWHLTEHAIASGSALP |  |  |  | successfully delivered into and accumulated in the cells at a significant level | delivered to and accumulated in the cells at a significantly high level
